Results: patent US20090258926A1 (CENTRE NATIONAL DE LA RECHERCHE SCIENTIFIQUE, published 2009)

Molecular target: importin α of the cellular nuclear import machinery (endogenous, in Hs68 human fibroblasts)
Test: cell-based or functional assay

Binder | luciferase expression after 12 hrs in synchronized Hs68 cells, relative to expression after 48 hrs [%] | transfection efficiency (luciferase) after 48 hrs relative to MPG [%]
Ac-GALFLGFLGAAGSTMGAWSQPKKKRKV-cysteamide (not fully specified) [MPG peptide (wild-type MPG), tested as MPG/DNA complex with plasmid] | 65 | –
Ac-GALFLGFLGAAGSTMGAWSQPKSKRKV-cysteamide (not fully specified) [MPG^ΔNLS peptide, tested as MPG^ΔNLS/DNA complex with plasmid] | – | 72
